Data: patent WO2011147762A2

Key:
[1] = target: ED-B fibronectin antigen protein (recombinant), bound to CNBr activated sepharose 4B (UniProt P02751); assay: ED-B sepharose column, % of total radioactivity bound; Study A; methionine 5 mg/mL; day 1
[2] = target: ED-B fibronectin antigen protein (recombinant), bound to CNBr activated sepharose 4B (UniProt P02751); assay: ED-B sepharose column, % of total radioactivity bound; Study A; trolox 5 mg/mL; day 1
[3] = target: ED-B fibronectin antigen protein (recombinant), bound to CNBr activated sepharose 4B (UniProt P02751); assay: ED-B sepharose column, % of total radioactivity bound; Study A; sodium thiosulfate 5 mg/mL; day 0
[4] = target: ED-B fibronectin antigen protein (recombinant), bound to CNBr activated sepharose 4B (UniProt P02751); assay: ED-B sepharose column, % of total radioactivity bound; Study A; maltose 25 mg/mL; day 5
[5] = target: ED-B fibronectin antigen protein (recombinant), bound to CNBr activated sepharose 4B (UniProt P02751); assay: ED-B sepharose column, % of total radioactivity bound; Study A; methionine 5 mg/mL; day 0
[6] = target: ED-B fibronectin antigen protein (recombinant), bound to CNBr activated sepharose 4B (UniProt P02751); assay: ED-B sepharose column, % of total radioactivity bound; Study A; methionine 10 mg/mL; day 7
[7] = target: ED-B fibronectin antigen protein (recombinant), bound to CNBr activated sepharose 4B (UniProt P02751); assay: ED-B sepharose column, % of total radioactivity bound; Study A; methionine 10 mg/mL; day 5
[8] = target: ED-B fibronectin antigen protein (recombinant), bound to CNBr activated sepharose 4B (UniProt P02751); assay: ED-B sepharose column, % of total radioactivity bound; Study B3; thioglycerol 10 mg/mL; day 1
[9] = target: ED-B fibronectin antigen protein (recombinant), bound to CNBr activated sepharose 4B (UniProt P02751); assay: ED-B sepharose column, % of total radioactivity bound; Study A; maltose 50 mg/mL; day 5
[10] = target: ED-B fibronectin antigen protein (recombinant), bound to CNBr activated sepharose 4B (UniProt P02751); assay: ED-B sepharose column, % of total radioactivity bound; Study A; sodium thiosulfate 25 mg/mL; day 3
[11] = target: ED-B fibronectin antigen protein (recombinant), bound to CNBr activated sepharose 4B (UniProt P02751); assay: ED-B sepharose column, % of total radioactivity bound; Study A; methionine 10 mg/mL; day 0
[12] = target: ED-B fibronectin antigen protein (recombinant), bound to CNBr activated sepharose 4B (UniProt P02751); assay: ED-B sepharose column, % of total radioactivity bound; Study A; sodium thiosulfate 50 mg/mL; day 3
[13] = target: ED-B fibronectin antigen protein (recombinant), bound to CNBr activated sepharose 4B (UniProt P02751); assay: ED-B sepharose column, % of total radioactivity bound; Study B3; ascorbic acid 25 mg/mL; day 1
[14] = target: ED-B fibronectin antigen protein (recombinant), bound to CNBr activated sepharose 4B (UniProt P02751); assay: ED-B sepharose column, % of total radioactivity bound; Study A; no-excipient control (saline); day 7
[15] = target: ED-B fibronectin antigen protein (recombinant), bound to CNBr activated sepharose 4B (UniProt P02751); assay: ED-B sepharose column, % of total radioactivity bound; Study A; no-excipient control (saline); day 5
[16] = target: ED-B fibronectin antigen protein (recombinant), bound to CNBr activated sepharose 4B (UniProt P02751); assay: ED-B sepharose column, % of total radioactivity bound; Study A; methionine 5 mg/mL; day 7
[17] = target: ED-B fibronectin antigen protein (recombinant), bound to CNBr activated sepharose 4B (UniProt P02751); assay: ED-B sepharose column, % of total radioactivity bound; Study A; methionine 25 mg/mL; day 5
[18] = target: ED-B fibronectin antigen protein (recombinant), bound to CNBr activated sepharose 4B (UniProt P02751); assay: ED-B sepharose column, % of total radioactivity bound; Study A; sodium thiosulfate 25 mg/mL; day 5
[19] = target: ED-B fibronectin antigen protein (recombinant), bound to CNBr activated sepharose 4B (UniProt P02751); assay: ED-B sepharose column, % of total radioactivity bound; Study B3; inositol 10 mg/mL; day 7
[20] = target: ED-B fibronectin antigen protein (recombinant), bound to CNBr activated sepharose 4B (UniProt P02751); assay: ED-B sepharose column, % of total radioactivity bound; Study A; inositol 25 mg/mL; day 7
[21] = target: ED-B fibronectin antigen protein (recombinant), bound to CNBr activated sepharose 4B (UniProt P02751); assay: ED-B sepharose column, % of total radioactivity bound; Study A; no-excipient control (saline); day 3
[22] = target: ED-B fibronectin antigen protein (recombinant), bound to CNBr activated sepharose 4B (UniProt P02751); assay: ED-B sepharose column, % of total radioactivity bound; Study A; trolox 5 mg/mL; day 7
[23] = target: ED-B fibronectin antigen protein (recombinant), bound to CNBr activated sepharose 4B (UniProt P02751); assay: ED-B sepharose column, % of total radioactivity bound; Study A; inositol 5 mg/mL; day 3
[24] = target: ED-B fibronectin antigen protein (recombinant), bound to CNBr activated sepharose 4B (UniProt P02751); assay: ED-B sepharose column, % of total radioactivity bound; Study A; maltose 25 mg/mL; day 3
[25] = target: ED-B fibronectin antigen protein (recombinant), bound to CNBr activated sepharose 4B (UniProt P02751); assay: ED-B sepharose column, % of total radioactivity bound; Study A; maltose 5 mg/mL; day 0
[26] = target: ED-B fibronectin antigen protein (recombinant), bound to CNBr activated sepharose 4B (UniProt P02751); assay: ED-B sepharose column, % of total radioactivity bound; Study A; inositol 50 mg/mL; day 7
[27] = target: ED-B fibronectin antigen protein (recombinant), bound to CNBr activated sepharose 4B (UniProt P02751); assay: ED-B sepharose column, % of total radioactivity bound; Study A; inositol 10 mg/mL; day 3
[28] = target: ED-B fibronectin antigen protein (recombinant), bound to CNBr activated sepharose 4B (UniProt P02751); assay: ED-B sepharose column, % of total radioactivity bound; Study A; sodium thiosulfate 5 mg/mL; day 5

Chain of 131I L19-SIP (radioiodinated L19 SIP homodimer) (chain): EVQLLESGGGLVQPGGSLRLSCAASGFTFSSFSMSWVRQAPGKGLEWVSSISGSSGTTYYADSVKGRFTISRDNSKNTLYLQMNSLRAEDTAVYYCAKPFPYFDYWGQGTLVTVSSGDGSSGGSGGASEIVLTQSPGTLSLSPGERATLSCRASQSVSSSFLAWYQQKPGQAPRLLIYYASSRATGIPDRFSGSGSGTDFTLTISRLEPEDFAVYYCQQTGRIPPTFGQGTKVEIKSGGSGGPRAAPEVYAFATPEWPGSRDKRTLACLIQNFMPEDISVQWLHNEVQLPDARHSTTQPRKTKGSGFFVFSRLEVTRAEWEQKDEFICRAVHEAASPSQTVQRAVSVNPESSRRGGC
Chain of 131I L19-SIP (radioiodinated L19 SIP homodimer) (chain): as above
Chain of UniProt P02751 (P02751 1266-1356 limits assumed): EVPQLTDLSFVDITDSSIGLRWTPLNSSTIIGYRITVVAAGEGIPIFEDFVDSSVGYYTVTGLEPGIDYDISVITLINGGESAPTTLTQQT

Immunoreactivity (%) [1]: 88% | Immunoreactivity (%) [2]: 84.8% | Immunoreactivity (%) [3]: 97.3% | Immunoreactivity (%) [4]: 57.7% | Immunoreactivity (%) [5]: 96.7% | Immunoreactivity (%) [6]: 54.8% | Immunoreactivity (%) [7]: 64.2% | Immunoreactivity (IR) (%) [8]: 60.7% | Immunoreactivity (%) [9]: 55.6% | Immunoreactivity (%) [10]: 92.3% | Immunoreactivity (%) [11]: 96.6% | Immunoreactivity (%) [12]: 91.7% | Immunoreactivity (IR) (%) [13]: 78% | Immunoreactivity (%) [14]: 43.7% | Immunoreactivity (%) [15]: 47.6% | Immunoreactivity (%) [16]: 61% | Immunoreactivity (%) [17]: 48.6% | Immunoreactivity (%) [18]: 87.9% | Immunoreactivity (IR) (%) [19]: 61.9% | Immunoreactivity (%) [20]: 62.8% | Immunoreactivity (%) [21]: 59.8% | Immunoreactivity (%) [22]: 52.9% | Immunoreactivity (%) [23]: 64.6% | Immunoreactivity (%) [24]: 66% | Immunoreactivity (%) [25]: 89.1% | Immunoreactivity (%) [26]: 61.9% | Immunoreactivity (%) [27]: 70.4% | Immunoreactivity (%) [28]: 79.4%
Substance: 131I L19-SIP (radioiodinated L19 SIP homodimer)
